For test [1], the target named is T1, HER2 extracellular domain (HER2-ECD) (human, UniProt P04626 23-652).
T1 construct: extracellular domain; also called immobilized HER2; extracellular domain of Erb2
Description: competition ELISA, block of 1.1.FI-Zb binding to immobilized HER2-ECD.
Description: Following a 1 h incubation the plate was washed with PBS-Tween and Strepavidin/HRP conjugate (Streptavidin-POD, Roche Molecular Biochemicals) was added for 30 min.

Test [2] addresses T1, HER2 extracellular domain (HER2-ECD). Briefly: direct binding ELISA, immobilized HER2-ECD, streptavidin-HRP detection.
The target is the same in test [3]. Briefly: phage ELISA, block of 1.1FI phage binding to immobilized HER2-ECD.
Description: HER2-ECD was immobilized directly to Maxisorp plates (Nunc) in 50 mM ammonium bicarbonate, pH 9.3, using 5 μg/ml, overnight at 4° C. Wells were blocked using PBS containing 1% BSA (PBS-BSA) for 1 h at 25° C. […] The microtiter plate was washed with PBS containing 0.05% Tween20 (PBS-Tween) and the phage bound to HER2-ECD were detected with an anti-gVIII/HRP monoclonal antibody conjugate (Amersham Pharmacia Biotech).
The target in the next test is T2, HER3 (UniProt P21860 20-643, limits assumed).
T2 construct: Called 'closely related HER3'
T2 sequence (P21860 20-643 limits assumed): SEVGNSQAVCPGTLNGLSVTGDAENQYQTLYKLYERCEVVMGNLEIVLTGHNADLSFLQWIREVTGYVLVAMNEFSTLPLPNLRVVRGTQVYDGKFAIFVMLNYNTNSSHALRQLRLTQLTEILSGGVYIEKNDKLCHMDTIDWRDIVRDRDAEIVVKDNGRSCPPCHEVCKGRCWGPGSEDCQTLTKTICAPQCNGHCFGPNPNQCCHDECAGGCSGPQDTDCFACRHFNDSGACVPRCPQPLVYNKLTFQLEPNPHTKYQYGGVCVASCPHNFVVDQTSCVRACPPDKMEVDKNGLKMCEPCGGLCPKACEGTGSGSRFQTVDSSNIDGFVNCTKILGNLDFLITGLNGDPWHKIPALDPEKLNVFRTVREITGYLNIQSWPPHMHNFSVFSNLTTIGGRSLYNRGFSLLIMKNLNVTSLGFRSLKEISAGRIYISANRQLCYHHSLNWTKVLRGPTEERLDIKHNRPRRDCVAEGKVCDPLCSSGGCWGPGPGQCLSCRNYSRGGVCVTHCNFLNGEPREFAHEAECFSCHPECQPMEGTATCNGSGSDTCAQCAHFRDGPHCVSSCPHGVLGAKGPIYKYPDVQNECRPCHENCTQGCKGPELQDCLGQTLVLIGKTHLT
Description: phage binding assay on immobilized protein.

Another test deals with T3, BSA (UniProt P02769 25-607).
T3 construct: Control coating protein; also called immobilized BSA
T3 sequence (P02769 25-607 limits assumed): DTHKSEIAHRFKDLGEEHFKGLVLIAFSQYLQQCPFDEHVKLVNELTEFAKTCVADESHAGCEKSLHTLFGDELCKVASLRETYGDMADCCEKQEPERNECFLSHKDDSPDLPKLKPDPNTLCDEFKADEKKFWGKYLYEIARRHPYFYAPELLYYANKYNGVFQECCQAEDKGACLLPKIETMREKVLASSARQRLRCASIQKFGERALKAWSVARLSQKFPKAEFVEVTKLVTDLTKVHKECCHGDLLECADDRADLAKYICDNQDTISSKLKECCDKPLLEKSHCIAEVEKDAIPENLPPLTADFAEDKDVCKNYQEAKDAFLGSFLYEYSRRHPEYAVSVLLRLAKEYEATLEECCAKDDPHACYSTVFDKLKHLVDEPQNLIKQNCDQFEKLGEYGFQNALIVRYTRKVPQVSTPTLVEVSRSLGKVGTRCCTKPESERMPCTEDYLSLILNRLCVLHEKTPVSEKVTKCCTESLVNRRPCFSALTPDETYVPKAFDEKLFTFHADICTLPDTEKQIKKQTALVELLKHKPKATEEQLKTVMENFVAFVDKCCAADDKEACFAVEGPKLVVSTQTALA
Briefly: phage binding assay on immobilized protein.

The target in the next test is T4, HER4 (UniProt Q15303 26-651, limits assumed).
T4 construct: Called 'closely related; HER4'
T4 sequence (looked up): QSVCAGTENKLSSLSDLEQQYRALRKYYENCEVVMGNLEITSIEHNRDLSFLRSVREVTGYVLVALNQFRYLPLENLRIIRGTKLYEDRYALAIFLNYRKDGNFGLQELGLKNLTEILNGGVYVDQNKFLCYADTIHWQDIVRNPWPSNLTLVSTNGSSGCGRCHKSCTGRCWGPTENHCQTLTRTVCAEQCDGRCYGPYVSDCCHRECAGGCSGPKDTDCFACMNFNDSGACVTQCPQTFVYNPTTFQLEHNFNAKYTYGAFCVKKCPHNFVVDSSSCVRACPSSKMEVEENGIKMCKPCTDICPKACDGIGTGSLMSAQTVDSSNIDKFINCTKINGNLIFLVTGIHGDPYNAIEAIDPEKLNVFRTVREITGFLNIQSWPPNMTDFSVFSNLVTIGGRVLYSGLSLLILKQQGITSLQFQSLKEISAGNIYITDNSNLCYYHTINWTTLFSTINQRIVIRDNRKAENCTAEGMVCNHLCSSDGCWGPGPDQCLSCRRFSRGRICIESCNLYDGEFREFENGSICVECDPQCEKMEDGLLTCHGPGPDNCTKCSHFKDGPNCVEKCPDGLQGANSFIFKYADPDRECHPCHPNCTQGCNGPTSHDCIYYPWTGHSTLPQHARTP
Description: phage binding assay on immobilized protein.

In test [4] the target is T1, HER2 extracellular domain (HER2-ECD). Description: phage binding assay, immobilized HER2-ECD.

Bridges are numbered along the chain shown (N, C = ends). Where no end group is shown, it is not given here.

B1: Peptide HER212 (peptide)
peptide: QVYESWGCIGPGCACLQACL
modifications: disulfide 8-13, 15-19
notes: Present only as monomer by mass spectrometry; also called synthetic peptide of clone 1.1.FI
For the molecule B1, the 50% inhibitory concentration (IC50) in test [1] worked out at 9000 nM.

B2: 1.1.FI-Zb (biotinylated 1.1.FI-Z) (other)
chain: QVYESWGCIGPGCACLQACL
modifications: not fully specified (C-terminus); cysteine pairing not given here; also: biotinylated with NHS-LC-biotin, sites not given here, fused to Z domain of protein A (not in chain)
As to B2, the EC50 in test [2] stood at 2 nM.

B3: 1.1FI-Fc (Fc fusion)
chain: QVYESWGCIGPGCACLQACLGGGSSG
modifications: not fully specified (C-terminus); cysteine pairing not given here; also: fused through linker to Fc of human IgG1 (not in chain)
notes: also called peptide 1.1.FI fused through a linker to Fc of human IgG1; Her2-Fc expression vector product; not shown: Fc portion of the human IgG1 (700 base pair fragment)
Regarding B3, the IC50 in test [3] is 3 nM.

B4: Peptide HER201 (peptide)
peptide: YSFEGWGCIGPGCAYLFEGH
modifications: disulfide 8-13 (inferred)
notes: also called synthetic peptide of phage-clone 1.1.2
With B4, the IC50 in test [1] came out at 300 nM.

B5: (1.1FI)2-Z (other)
chain: QVYESWGCIGPGCACLQACLGGGSGGQVYESWGCIGPGCACLQACL-{Z domain of protein A}
modifications: not fully specified; cysteine pairing not given here; also: fused to Z domain of protein A (not in chain)
notes: also called single chain dimer; 1.1FI repeated twice and fused to the Z domain of protein A
In test [1], B5 had an IC50 of 20 nM.

B6: phage clone 5.1 (peptide)
peptide: RSCADVASRCWEHCIT
modifications: not fully specified (C-terminus); cysteine pairing not given here; also: displayed on phage as pVIII fusion
notes: also called Pool 5 clone; not shown: linker and phage coat protein pVIII (polyvalent display)
As for B6, the binding result in the test with HER3 is “no binding”; with BSA, “no binding”; with HER4, “no binding”; in test [4], “binds”.

B7: phage clone 1.1 (peptide)
peptide: YEVEAWDCMGPGCANLFEAH
modifications: not fully specified (C-terminus); cysteine pairing not given here; also: displayed on phage as pVIII fusion
notes: also called Pool 1 clone; not shown: linker and phage coat protein pVIII (polyvalent display)
Consider B7, for which the binding result in the test with HER3 is reported as “no binding”; with BSA, “no binding”; with HER4, “no binding”; in test [4], “binds”.

B8: phage clone 7.1 (peptide)
peptide: CSWVLVQCGGEWWHCCGLGCGLVVNAC
modifications: not fully specified (C-terminus); printed as Cys-Ser-Trp-Val-Leu-Val-Gln-Cys-Gly-Gly-Glu-Trp-Trp-His-Cys-Cys-Gly-Leu-Gly-Cys-Gly-Leu-Val-Val-Asn-Ala-Cys; cysteine pairing not given here; also: displayed on phage as pVIII fusion
notes: also called Pool 7 clone; not shown: linker and phage coat protein pVIII (polyvalent display)
On to B8, for which the binding result with HER3 was “no binding”; with BSA it was “no binding”; in the test with HER4, “no binding”; in test [4], “binds”.

The values above are taken from patent US20030171278A1 (Genentech, published 2003).
